Measured values as given in patent US12383631B2, “Immune antigen specific IL-18 immunocytokines and uses thereof” (Bright Peak Therapeutics AG, priority 2022, dated 2025).
Residue numbers refer to the chain shown, from its start. Names may count otherwise.

T1: human IL-18 binding protein isoform a (IL-18BPa) (Homo sapiens, UniProt O95998)
T1 sequence (O95998 31-194): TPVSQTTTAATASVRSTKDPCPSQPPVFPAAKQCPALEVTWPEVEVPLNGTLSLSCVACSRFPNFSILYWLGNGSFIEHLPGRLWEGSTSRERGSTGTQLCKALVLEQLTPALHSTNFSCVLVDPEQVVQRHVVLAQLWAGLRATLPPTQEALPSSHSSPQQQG

B1: C143: IL-18 polypeptide: V11I, C38A, K53A, C76A, C127A (protein)
chain: YFGKLESKLSIIRNLNDQVLFIDQGNRPLFEDMTDSDARDNAPRTIFIISMYADSQPRGMAVTISVKCEKISTLSAENKIISFKEMNPPDNIKDTKSDIIFFQRSVPGHDNKMQFESSSYEGYFLAAEKERDLFKLILKKEDELGDRSIMFTVQNED
B2: C144: IL-18 polypeptide: V11I, C38A, K53A, T63A, C76A, C127A (protein)
chain: B1 chain with T63A
B3: C147: IL-18 polypeptide: V11I, C38A, K53A, D54A, C76A, C127A (protein)
chain: B1 chain with D54A
B4: C150: IL-18 polypeptide: V11I, T34A, C38A, K53A, C76A, C127A (protein)
chain: B1 chain with T34A
B5: C151: IL-18 polypeptide: V11I, D35A, C38A, K53A, C76A, C127A (protein)
chain: B1 chain with D35A
B6: C153: IL-18 polypeptide: V11I, D37A, C38A, K53A, C76A, C127A (protein)
chain: B1 chain with D37A
B7: C145: IL-18 polypeptide: V11I, C38A, K53A, S55A, C76A, C127A (protein)
chain: B1 chain with S55A
B8: C156: IL-18 polypeptide: V11I, C38A, N41A, K53A, C76A, C127A (protein)
chain: B1 chain with N41A
B9: SEQ ID NO: 68: IL-18 polypeptide: V11I, C38A, M51G, K53A, C76A, C127A (protein)
chain: B1 chain with M51G
B10: C148: IL-18 polypeptide: F2A, V11I, C38A, K53A, C76A, C127A (protein)
chain: B1 chain with F2A
B11: C154: IL-18 polypeptide: V11I, E31A, D37A, C38A, K53A, C76A, C127A (protein)
chain: B1 chain with E31A, D37A
B12: C157: IL-18 polypeptide: V11I, C38A, K53A, C76A, C127A, D132A (protein)
chain: B1 chain with D132A
B13: C149: IL-18 polypeptide: V11I, E31A, C38A, K53A, C76A, C127A (protein)
chain: B1 chain with E31A
B14: C155: IL-18 polypeptide: V11I, C38A, D40A, K53A, C76A, C127A (protein)
chain: B1 chain with D40A
B15: C152: IL-18 polypeptide: V11I, S36A, C38A, K53A, C76A, C127A (protein)
chain: B1 chain with S36A

Molecular target: T1, human IL-18 binding protein isoform a (IL-18BPa)
Experiment: IL-18 Binding Protein inhibition cellular assay in NK-92 cells (Example 4 / 17C)
Assay type: cell-based
Conditions: inhibition by IL-18BP of IFNγ stimulation in NK92 cells
Experimental: The NK cell line NK-92 derived from a patient with lymphoma (ATCC® CRL-2407™) is cultured in aMEM medium supplemented with 20% FCS-Glutamax, 25 μM β-mercaptoethanol, and 100 IU/mL of recombinant human IL-2.
On the day of experiment, cells are harvested and washed with aMEM medium without IL-2 and containing 1 ng/mL of recombinant human IL-12. After counting, the cells are seeded at 100,000 cells/well in a 384 well titer plate and incubated at 37° C./5% CO2. Sixteen 2-fold serial dilutions of Fc-fused human IL-18 binding protein isoform a (IL-18BPa) are prepared in aMEM medium. 1 ng/mL of IL-12 containing 2 nM of each modified IL-18 polypeptide variant is added to the NK-92 cells. The final IL-18 analyte concentration is 1 nM, and the final IL-18BPa concentration ranged from 566 nM to 17 pM.
After incubating the cells for 16-20 hr at 37° C./5% CO2, 5 μL of the supernatant is carefully transferred to a 384 microwell OptiPlate. IFNγ levels are measured using a human IFNγ AlphaLISA Assay Kit. Briefly, 10 μL of 2.5× AlphaLISA anti-IFNγ acceptor beads and biotinylated antibody anti-IFNγ mix are added to 5 μL of NK-92 supernatants. The mixtures are incubated for 1 hr at room temperature with shaking. Under subdued light, 2.5 μL of 2×SA donor beads are pipetted in each well and incubated for 30 min at room temperature with shaking. AlphaLISA signals are then measured on an EnSpire™ plate reader using 680 nm and 615 nm as excitation and emission wavelengths, respectively. Half maximal inhibitory concentrations (IC50) are calculated based on a variable slope and four parameter analysis using GraphPad PRISM software.
17C—IFNγ Stimulation and IL-18BP Inhibition Assay—The experiments described in Example 4 for determination of IFNg stimulation in NK92 cells (and inhibition by IL-18 BP) were performed substantially as described on modified IL-18 polypeptides in order to assess their activities and their suitability for incorporation into immunocytokine compositions.

IC50 [nM] | Molecule
1.62 | B1
7.52 | B2
47.6 | B3
21.3 | B4
3.62 | B5
2.22 | B6
10.2 | B7
0.681 | B8
733 | B9
5.05 | B10
3.71 | B11
6.08 | B12
1.17 | B13
3.23 | B14
7.85 | B15
